Target: GST-DIAPH3-NT
Assay: GST pull-down with immunoblot quantification
Settings: n = 3, parent: est. 1.0, read off a plot

Row | Substance | ratio to parent | ratio to parent (p = 0.0072 vs wt)
1 | MBP-anillin (1–151) wild type (from UniProt Q9NQW6) K38A; R39A | 0.94 | 
2 | MBP-anillin (1–151) wild type (from UniProt Q9NQW6) P43A; L44A | 0.38 | 
3 | MBP-anillin (1–151) wild type (from UniProt Q9NQW6) R41A | 0.59 | 

Continued, values first:

Row | ratio to parent | ratio to parent (p = 0.0072 vs wt) | Substance
4 | 0.82 |  | MBP-anillin (1–151) wild type (from UniProt Q9NQW6) Q42A
5 |  | 0.03 | MBP-anillin (1–151) wild type (from UniProt Q9NQW6) R41A; Q42A; P43A; L44A
